Results from the nanobody polyreactivity screen of Harvey et al. (2022).

assay: yeast display, Sf9 membrane polyspecificity reagent, FACS + sequencing; frameworks hold sequencing errors
Outline: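 Synthetic nanobody libraries on Saccharomyces cerevisiae BJ5465 were galactose-induced for 36–48 hours, stained 1 hour at 4 °C with 10% biotinylated, detergent-solubilized Sf9 membrane reagent and enriched on streptavidin microbeads. FACS then separated cells into low and high (top ~1%) gates by anti-HA (expression) and streptavidin (reagent binding) fluorescence. Genes were colony-PCR amplified, MiSeq 2 × 250 sequenced and CDR-length filtered. A clone's polyreactivity label is that of its gate of origin.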

Sequence	polyreactivity (PSR sort gate)
QVQLVESGGGLVQAGGSLRLSCAASGIIFSPYAMGWYRQAPGKERELVAAISYSGGSTYYADSVKGRYTISRDNAKNSVYLQMNSLKPEETAVYYCAVFYSYYLAFMGYWDYDYWGQGTQVTVSS	low polyreactivity
QVQLVESGGGLVQAGGSLRLSCADSGLIFWAYAMGWYRQEPGTERELVAAINWRGGSTYYADSVKGRFTISRDTAKNTVYLQMNSLKPEDTAVYYCAADSYYDEYDYWGQGTQVTVSS	low polyreactivity
QVQLVESGGRLVQAGGSLRLTCAASGITFGDYAMGWYRQAPGKERELVAGINWSGDGTYYADSVKGRFTISRDNAKNTVYLQMNSLKPEDTAVYYCAAETFYDYGGYDYWGQGTQVTVSS	low polyreactivity
QVQLVESGGGLVQAGGSLRLSCPASGFYAMGWYRQAPGKERELVAAIRGSGSSTYYADSVKGRFTISRDNAKNTVYLQMNSLKPEDTAVYYCAKQGYLVWSGWRWYDYWGQGTQVTVSS	low polyreactivity
QVQLVESGGGLVQAGGSLRLSCAASGLTFSKNARGWYRQSPGKDRELVATISYSSSRTNYADSVKGRFTISRVNAKNPVYLQMNSLKPEDTAVYYCAARVYNGWPTHYDYWGQGTQVTVSS	high polyreactivity
QVQLVESGGGLVQAGGSLRLSCAASGITFYRYVMGWYRQAPGKERELVAAITSRGGSTSYADSVKGRFTISRDNAKNTVYLQMNSLKPEDTAVYYCAAVYRRDYDYWGQGTQVTVSS	high polyreactivity
QVQLVESGGGLVQAGGSLRLSCAASGIIYWDYAMGWYRQAPGKEREYVAAINTSGGTTTYADSVKGRFTISRDNAKNTVYFQMNSLKREDTAVYYCAADPWVYYSYAYYSWGQGTQVTVSS	low polyreactivity
QDQLVESRGGLVQAGGSLRLSCAASGSIFIENTMGWYRQAPGKERELVAAISGSVGRTFYADSVKGRFTISRDNAKNTVYLQMNSLKPEDTAVYYCAAVRRTSPGWVYYWGQGTRVTVSS	high polyreactivity
QVQLEESGGGLVQAGGSLRLSCAASGFIFFKYAMGWYRQAPGKEREFVAAISKSGTSTYYADSVKGRFTISRDNAKNTVYLQMNSLKPEDTAVYYCAKRYLTRYKGYYYWGQGTQVTVSS	high polyreactivity
QVQLVESGAGLVQAGGSLRLSCAASGFTFAFYAMGWSRQAPGKERELVAAITGSGGSTYYADSVKGRFTISRDNAKNTVYLQMNSLIPEVTAVYYCNNYTYYSRMDYWGPGTQVTVSS	high polyreactivity
QVQLVESGGGLVQAGGSLRLSCAASGSTFGSNAMGWYRQAPGKERELVATITRRSGSTYYADSVKGRFTISRDNAKNTVYLQMNSLKPEDTAVYYCARVGFWLQYDYWGQGTQVTVSS	high polyreactivity
QVHLVESGGGLVQAGGSLRLICAASGRIFIVYAMGWYRQAPGKERELVAVITGGGSTNYADSVKGRFTISRDNAKNSVYLQMNSLKPEDTAVYYCATEGYGHGGETVGGVYSDLGYWGQGTQVTVSS	low polyreactivity
QVQLVESRAGLVQAGGSLRLSCAASGNIFDIYAMGWYRQAPGKERELVAAISSGGSTYYADSVKGRFTISRDNAKNTVYLQLNSLKPEDTAVYYCAESRVGYYRYEYWGQGNQVTVSS	low polyreactivity
QVQLVESGGGLVQAGGSLRLSCAASGRTFYRNAMGWSRQAPGKEREFVAVISVSGGSTYYADSVKGRFTISRDNAKNTVYLQMISLKPEDTAVYYCAKRGPVRQTANDYWGPGTQVTVSS	low polyreactivity
QVQLVESGGGLVQAGGSLRLSCAASGRFFRYNAMGWYRQAPGKERELVAAIRYSGTSTYYADSVKGRFTISRDNAKNTVYFQMNSLKPEDTAVYYCAAYKRYYYGYDYWGQGTQVTVSS	high polyreactivity
PVQIVESGGVLDQAGGSLRLSCAASGSIFTRNTMGWYRQAPRKERELVAAISQRGGSTYYADSVKGRFTISRDNAKNTVYLQMNSLIPEDTAVYFCAADFSFGYYWYGYWGQGTQVTVSS	high polyreactivity
QVQLVESGGGLVQAGGSLRLSCAASGSIFYPYAMGWYRQAPGKERELVASITINDGSTYYADSVKGRFTISRDNAKNTVYLQMNSLKTEDTSVYYCNVEPVPGFGSEYEYWGQGTQVTVSS	low polyreactivity
QVQLVESGGGLVQAGGSLRLSCAASGRIFNWYAMGWYRKAPGKERELVAAISTDGSTYYADSVKGRFTISRDNAKNTVFLQMNSLKPEDTAVYYCAAVPGYTHLWGGPFDYWGQGTQVTVSS	low polyreactivity
QVQLVESGGGSVQAGGSLRLSCAASGSTFWSYAMGWYRQAPGKERELVAVITGSDGRTFYADSVKGRFTISRDNANNTFFLQMNSLKPEDTAVYYCAADALFRATRFDRSTSEDDYWGQGTQVTVSS	low polyreactivity
QVQLVESGGGLDQAGGSLRLSCAASGAIFPIYAMGWYRQAPGKERELVAAINRSGGSTYYADSVKGRFTISRDTAKNTVYLQMNSLKPEDSAVYYCNADYGYHNQLFWGYYGWSSDHWGQGTQVTVSS	low polyreactivity
QVQLVESGGGLVQAGGSLLLSCAASGSTFNDNAMGWYRQAPGKERELVAAIDSGGITNYADSVKGRFTISRDNAKNTVYLQMNSLKPEDTAVYYCAVEGEYLTPSGRYRLDYWGQGTEVTVSS	low polyreactivity
QIQLVESGGWLVQAGGSLRLRCAASGNTIHWNVMVWYRQPPGKERELVATITFSGSSTYYADSVKGRFTISRDNAKNTVYLQMNSLQPEDTAVYFCNATRYRLRPSGVRYKYNYWGQGTQGTVSS	low polyreactivity

Sequence	polyreactivity (PSR sort gate)
QVQLVESGGGLVHAGGSLRLSCAASGNIITYNAMALYRQAPGKERELVAAITRGGNTNYADSVKGRFTISRDNAKNTVYLQMNSLKPEDTAVYFCAADRYVQLLGYFFEFDYWGQGSQVTVSS	low polyreactivity
QVQLVESGGGLVHAGGSLRLSCAPSGSTFFTNAMGWYRQAPGKERELVAAITINDGSTFYADSVKGRFTISRDNAKNTVYLQMNSLKQEDTAVYYCNADGVDLYDYWGQGTQVTVSS	low polyreactivity
QVQLVESGGGLVQAGGSLRLSCAASGIIFDDYAMGWYRQATGKERELVAVISSSGGNTYYADSVKVRFTISRDNAKNSVYLQMNSLKPEDTAVYYCAATYYYKSIYWFEYWGQGTQVTVSS	low polyreactivity
QVQLVESGGRIVQAGGSLRLSCAASGRTFLYNVMGWSRQAPGKERELVAAITSGGRTYYADSVKGRFTISRDNAKNTVYLQMNSLKPEDTAVYYCNADRQLYIYRYDYWGQGTQVTVSS	low polyreactivity
QVQLVESGGGLVQAGGSLRLTCAASGSTFIRYTMVWYRQAPGKEREFVATITWSTGTTYYADSVKGRFTISRDNAKYSVYLQMNSLKPEDTAVYYCAAVYYYYTGITYDYWGQGTQVTVSS	high polyreactivity
QVQLVESGGGLVQAGGSLRLSCAASGSTFWYNAMGWYRQAPGKEREFVASISFRSGRTYYADSVKGRFTISRDNAKNTVYLQMNSLKPEDTAVYYCAADYYQYKYDYWGQGTQVTVSS	high polyreactivity
QVQLQESGGGLVQAGGILRLSCASCGNIIPSAVMVWYRQALGKEREFVATINSGSNTYYADSVKGRFTISRDNAKITVYQQMNILKLEDTAVYYCAAYFKLPAWHTYWGQGTQVTVSS	low polyreactivity
QVQLVESGGGLVQAGGTLRLSCSASGRTFQVYAMGWYRQAPGKERELVAGITRAGSTYYADSVKGRFTISRDNAKNTVYLQMNSLKPEDTAVYYCAASRWHGYNYWGQGTQVTVSS	high polyreactivity
QVQLHESGGGLVQAGGSLRLSCAASGTISYAGPMGWYRQAPGKEREFVAGIGVGSNTNYADRVKGRYTIIRDNAKNTEYLQRNSLKPEDTALYYCAVGGYAPLGRPYWGQGTQVTVSS	low polyreactivity
QVQLVESGGGLLQAGGSLRLSCAASGRTFLGYAMGWYIQAPGKERELVAAISWDGTSTYYADSLKGRFTISRDNAKNTVYLPMNSLKPEDTAVYYCAAQLTDYQSKTLSYDYWGQGTQVTVSS	low polyreactivity
QVKLQGSGGGLAQAGDSLRLSCAASGTIFSEYNNGLVSPGAGQRTRTCCRYWCWGNTYYADSAKGRFTTSRDNAKNSVYLQKNSLKPEDTAVYYCAFNLPYPSRHIYRGQGTQVTVSS	high polyreactivity
QVQLVESGGGLVQAGGSLRLSCAASGLTFIYYAMGWYRQAPGKERELVAGITRRGGSTYYADSVKGRFTISRDNAKNNVYLQMNSLKPEDTAVYYCAKSPVYRFDSWGQGTQVTVSS	high polyreactivity
QVQLVESGGGLVQAGGSLRLSCAASGRTFRDNAMGWYRQAPGKERELVAAISRRGGSTYYADSVKGRFTISRDNAKNTVYLQMNSLKPEDTAVYYCAADRPDGWVDYWGQGTQVTVSS	low polyreactivity
QVQLVESAGGLVQAGGSLRLSCAASGYIFSDNTMGWYRQAPGKERELVAVITSGTSTSYADSVKGRFTISRDNAKNTVYLQMNSLKPEDSAVYYAARTGQYKTYGEYDYWGQGTQVTVSS	low polyreactivity
QVQLVQSGGGLVQAGGSLRLSCAASGRTLWSYVMGWYRQAPGKERELVAAITSGGTTYYADSVKGRFTISRDNAKNTVYLQMNSLKPEDTAVYYCNVYTKFVYAYDYWGQGTQVTVSS	high polyreactivity
QVQLVESGGGLVQAGGRLRLSCAASGSTFPTNVMGWYRQAPGKERELVAAITKRGSITYYADSVKGRFTISRDNAKNTVYLQMNSLKPEDTAVYYCAARKVAVRGYGYWGQGTQVTVSS	high polyreactivity
QVQLVESGGGLVQAGGSLRLSCAASGFIFQSYAMGWYRQAPGKERQLVAAISYTGGSTYYADSVKGRFTISRDNAKNTVYLQMNSLKPEDTAVYYCARSYYTNGNALKRDYWGQGTQVTVSS	high polyreactivity
QVQLVESGGGLVQAGGSLRLSCAASGSTLRYYAMGWYRQAPGKERELVAAITYSAGRTSYADSVKGRFTISRDNAKNTVYLQMNSLKPEDTAVYYCATQWHSYLRRYDYWGQGTQVTVSS	low polyreactivity
QVQLVESGGGLVQAGGSLRLICAASGITFLQYARGWYRQATGKERELVAVISRGSRTYYADSVKGRFTISRDNAKNTFYLQMNSLKPEDTAVYYCAAVRGLAVGYDYWGQGTQVTVSS	high polyreactivity
QVQLVESGGGLVQAGGSLRLSCAASVFTSLIYAMGWYRPAPGKERELVATLTWGGGSTYADSVKGRLTISRDNAQNTVYLQMNSLKPVDTAVYDCKADIYDSWVYATVYSDRYDYWGQGTQVTVSS	low polyreactivity
QVQLVESGGGLVQAGGSLRLSCAASGFIFLPNDMGWYRQAPGKEREFVAAIDWSGGSTYYADSVKGRFTISRDNAKNTVYLQMNSLKPEDTAVYYCNAEGRRVGFRIDYDYWGQGTQVTVSS	low polyreactivity
